Results: patent US11674959B2, “Methods for identifying and preparing pharmaceutical agents for activating Tie1 and/or Tie2 receptors” (The Johns Hopkins University, priority 2017, dated 2023)

Tests used:
STAT3 = experiment: Western blot of MEC lysates: STAT3 phosphorylation; assay type: cell-based, human; settings: Ang2 and AXT107 treatment
Description: (§1) To investigate the effects of the integrin inhibitor AXT107 on Tie2 signaling, confluent monolayers of microvascular endothelial cells (MECs) on fibronectin-coated dishes were treated with various concentrations of AXT107 followed by exposure to the Tie2 ligands Ang1 or Ang2.
(§2) Human dermal microvascular endothelial cells (Lonza) were maintained at 37° C. and 5% CO2 in EBM-2MV medium (Lonza) and used between passages two through seven. Where applicable, cells were serum starved in EBM-2 medium (Lonza) with no supplements. For FITC-Dextran permeability assays phenol red-free media were used to avoid auto-fluorescence. […]
(§3) For Ang1/2 signaling investigations, cell culture dishes (10 cm diameter) were coated with 5 μg/ml fibronectin (FN1; Sigma-Aldrich, St. Louis, Mo.) for two hours at 37° C. […] Specific proteins were identified by Western blot, using the following primary antibodies: Cell Signaling—phospho-Tie2 (Y992) (Cat #: 4221), Tie2 (Cat #: 7403), phospho-Stat3 (Y705) (Cat #: 4113), Stat3 (Cat #: 4904), phospho-Akt (S473) (Cat #: 4058), Akt (Cat #: 9272), phospho-p44/42 MAPK (T202/Y204) (Cat #: 4370), p44/42 MAPK (Cat #: 4695); BD Transduction Laboratories—β1 integrin (Cat #: 610467); Millipore—α5 integrin (Cat #: AB1928) and detected with HRP-conjugated goat anti-rabbit and sheep anti-mouse secondary antibodies (GE healthcare).

Akt = experiment: Western blot of MEC lysates: Akt phosphorylation; assay type: cell-based, human; settings: Ang2 and AXT107 treatment
Description: as §1, §2, §3

[1] = Self-assembly of peptide in media; assay type: physicochemical; settings: added to media
Tie2 = Tie2 immunoprecipitation from fractionated MEC lysates, blotted for phospho-Tie2; assay type: cell-based, human; settings: Ang2 with or without AXT107; soluble vs insoluble fractions
Description: Next, experiments were performed to determine whether or not relocation of Tie2 to the insoluble fraction was important for Tie2's activation by Ang2. Tie2 was immunoprecipitated from fractionated MEC lysates exposed to Ang2 with or without AXT107 and then immunoblotted for phospho-Tie2.
(§4) The isolation of Triton X-100 soluble and insoluble fractions was performed using modifications to previously-described procedures (see, e.g., Lampugnani et al., J Cell Biol. 1995; 129(1):203-217). FN1-coated six-well plates were seeded with 2.5×10^6 cells and cultured for forty-eight hours, as described above. The cultures were then serum starved for ninety minutes in EBM-2 media, treated with 100 μM AXT107 or DMSO vehicle, and fifteen minutes with 1 mM sodium vanadate. The cells were then stimulated with either 100 ng/ml VEGFA, 400 ng/ml Ang2, or PBS for fifteen minutes. The plates were then transferred to ice and washed twice with cold dPBS containing Ca^2+ and Mg^2+ and twice with EBM-2 media. The media was then removed and the cells incubated for thirty minutes on ice, at 4° C. in 200 μl of Triton X-100 extraction buffer (10 mM Tris-HCl, pH 7.5; 150 mM NaCl; 2 mM CaCl2; 1% NP-40; 1% Triton C-100; and a protease inhibitor cocktail (Cell Signaling, Cat #: 5871)) with occasional agitation. […] Samples were analyzed by western blot as described above. […]

α5β1 integrin = target: T1, α5β1 integrin (Homo sapiens, UniProt P05556+P08648); experiment: Immunoprecipitation of α5 integrin in Triton X-100 fractionated lysates, blotted for β1; assay type: cell-based; settings: after AXT107 treatment; data not shown
T1 construct: host or cells: human dermal microvascular endothelial cells (MECs)
Description: Since β1 integrin is the only known β subunit to heterodimerize with the α5 integrin subunit, it unlikely that the α5 subunit, that was observed here in the insoluble fractions, originated from a heterodimeric integrin pair other than α5β1. Unfortunately, high background impaired the visualization of α5 integrin alone by immunofluorescence. Given the unexpected discovery that AXT107 dissociates the integrin heterodimer, this discovery was confirmed in several independent assays. […] Thus, interactions between Tie2 and heterodimerized α5β1 integrin appear to retain Tie2 at the EC-ECM interface.
as §4, with “media.” for “media. The media was then removed and the cells incubated for thirty minutes on ice, at 4° C. in 200 μl of Triton X-100 extraction buffer (10 mM Tris-HCl, pH 7.5; 150 mM NaCl; 2 mM CaCl2; 1% NP-40; 1% Triton C-100; and a protease inhibitor cocktail (Cell Signaling, Cat #: 5871)) with occasional agitation.”

Tie2 / α5 integrin = target: T2, Tie2 / α5 integrin (Homo sapiens, UniProt P08648); experiment: Tie2 immunoprecipitation from fractionated lysates, blotted for α5 integrin; assay type: cell-based; settings: peptide-treated insoluble fraction; with 200 ng/ml Ang2 or no growth factor
T2 construct: host or cells: human dermal microvascular endothelial cells (MECs)
Description: Finally, it was determined whether or not the α5 integrin subunit remains complexed with Tie2 following its disassociation with β1 integrin.
as §4, with “agitation. The extraction buffer was gently collected and centrifuged at 12,000×g for five minutes.” for “agitation.”

integrin αvβ3 = integrin αvβ3 (Homo sapiens, UniProt P05106+P06756); settings: Lee et al. 2014; Lima et al. 2017; cited from earlier work
Chain of integrin αvβ3 (P06756 31-1048): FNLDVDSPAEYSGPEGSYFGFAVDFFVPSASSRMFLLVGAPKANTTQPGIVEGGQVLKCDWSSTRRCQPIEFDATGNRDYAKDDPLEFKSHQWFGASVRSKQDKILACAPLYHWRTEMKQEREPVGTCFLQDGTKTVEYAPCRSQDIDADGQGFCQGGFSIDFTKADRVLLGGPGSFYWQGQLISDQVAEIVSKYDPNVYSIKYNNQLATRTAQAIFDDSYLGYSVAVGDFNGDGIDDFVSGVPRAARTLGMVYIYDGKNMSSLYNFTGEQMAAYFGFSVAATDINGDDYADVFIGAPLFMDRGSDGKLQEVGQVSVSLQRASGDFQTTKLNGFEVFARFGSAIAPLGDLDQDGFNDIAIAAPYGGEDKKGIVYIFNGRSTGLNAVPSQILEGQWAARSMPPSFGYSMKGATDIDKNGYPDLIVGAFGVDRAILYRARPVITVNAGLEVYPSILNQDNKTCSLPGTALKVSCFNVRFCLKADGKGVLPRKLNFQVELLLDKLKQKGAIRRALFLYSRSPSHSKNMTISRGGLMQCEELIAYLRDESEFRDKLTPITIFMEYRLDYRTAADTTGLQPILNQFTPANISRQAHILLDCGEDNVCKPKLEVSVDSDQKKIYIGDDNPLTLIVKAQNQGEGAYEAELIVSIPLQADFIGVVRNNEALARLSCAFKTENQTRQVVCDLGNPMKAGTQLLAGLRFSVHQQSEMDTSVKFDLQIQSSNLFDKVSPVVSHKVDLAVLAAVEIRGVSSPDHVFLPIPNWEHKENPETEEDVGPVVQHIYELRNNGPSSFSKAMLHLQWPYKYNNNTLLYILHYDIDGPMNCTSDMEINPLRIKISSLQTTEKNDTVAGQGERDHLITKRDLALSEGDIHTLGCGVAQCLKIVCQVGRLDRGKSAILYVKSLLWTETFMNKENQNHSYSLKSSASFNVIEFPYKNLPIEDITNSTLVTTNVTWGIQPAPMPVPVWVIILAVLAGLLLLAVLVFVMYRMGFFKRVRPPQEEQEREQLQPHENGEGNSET
Chain of integrin αvβ3 (P05106 27-788): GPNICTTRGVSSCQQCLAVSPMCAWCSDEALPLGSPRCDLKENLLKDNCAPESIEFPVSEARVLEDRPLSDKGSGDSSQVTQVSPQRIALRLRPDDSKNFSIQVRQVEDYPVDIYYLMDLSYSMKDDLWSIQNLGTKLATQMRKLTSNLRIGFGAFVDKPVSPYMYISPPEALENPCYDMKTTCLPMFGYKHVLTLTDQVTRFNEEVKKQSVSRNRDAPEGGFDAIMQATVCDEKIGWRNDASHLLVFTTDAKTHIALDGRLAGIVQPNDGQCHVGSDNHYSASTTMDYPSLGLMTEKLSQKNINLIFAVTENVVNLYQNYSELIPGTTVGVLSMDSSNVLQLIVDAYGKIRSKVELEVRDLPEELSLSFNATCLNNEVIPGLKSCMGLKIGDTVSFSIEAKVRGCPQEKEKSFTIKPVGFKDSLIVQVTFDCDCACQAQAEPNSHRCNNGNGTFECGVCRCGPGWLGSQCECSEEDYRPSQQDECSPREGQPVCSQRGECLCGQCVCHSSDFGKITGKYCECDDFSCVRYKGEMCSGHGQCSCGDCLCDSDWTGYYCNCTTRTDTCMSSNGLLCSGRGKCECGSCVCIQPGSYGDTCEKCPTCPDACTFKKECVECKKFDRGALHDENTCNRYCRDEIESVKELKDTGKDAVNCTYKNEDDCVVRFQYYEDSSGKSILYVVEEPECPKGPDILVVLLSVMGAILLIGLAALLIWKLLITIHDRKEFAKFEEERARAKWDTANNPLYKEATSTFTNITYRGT

T2 sequence (P08648 42-894 limits assumed): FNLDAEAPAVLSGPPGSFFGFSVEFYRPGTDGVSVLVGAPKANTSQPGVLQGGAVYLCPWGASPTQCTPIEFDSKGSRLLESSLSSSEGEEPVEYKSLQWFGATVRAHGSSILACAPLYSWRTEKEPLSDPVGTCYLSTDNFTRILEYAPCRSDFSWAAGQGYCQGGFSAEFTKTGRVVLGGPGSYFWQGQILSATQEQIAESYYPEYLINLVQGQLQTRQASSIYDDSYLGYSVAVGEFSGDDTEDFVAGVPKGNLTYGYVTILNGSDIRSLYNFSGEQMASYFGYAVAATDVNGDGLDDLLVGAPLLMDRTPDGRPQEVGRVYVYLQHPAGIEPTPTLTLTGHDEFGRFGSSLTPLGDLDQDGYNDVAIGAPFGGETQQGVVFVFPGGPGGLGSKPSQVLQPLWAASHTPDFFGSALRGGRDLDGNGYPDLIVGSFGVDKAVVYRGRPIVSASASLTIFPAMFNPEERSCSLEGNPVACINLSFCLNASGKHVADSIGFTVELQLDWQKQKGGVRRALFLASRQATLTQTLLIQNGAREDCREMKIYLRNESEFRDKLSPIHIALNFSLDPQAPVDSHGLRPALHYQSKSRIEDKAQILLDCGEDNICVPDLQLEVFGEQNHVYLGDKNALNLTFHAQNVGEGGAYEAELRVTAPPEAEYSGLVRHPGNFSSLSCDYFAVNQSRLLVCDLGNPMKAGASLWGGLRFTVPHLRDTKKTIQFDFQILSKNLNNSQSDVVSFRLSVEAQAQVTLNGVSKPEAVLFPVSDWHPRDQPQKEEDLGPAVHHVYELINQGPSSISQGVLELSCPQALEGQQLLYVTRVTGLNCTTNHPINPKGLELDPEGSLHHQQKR
T2 sequence (P08648 895-1049 limits assumed): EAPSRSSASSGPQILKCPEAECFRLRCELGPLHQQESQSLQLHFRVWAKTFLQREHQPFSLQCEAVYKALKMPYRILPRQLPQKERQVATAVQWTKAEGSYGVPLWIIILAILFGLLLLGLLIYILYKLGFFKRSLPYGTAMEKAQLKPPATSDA
T2 sequence (Q02763 23-1124 partner): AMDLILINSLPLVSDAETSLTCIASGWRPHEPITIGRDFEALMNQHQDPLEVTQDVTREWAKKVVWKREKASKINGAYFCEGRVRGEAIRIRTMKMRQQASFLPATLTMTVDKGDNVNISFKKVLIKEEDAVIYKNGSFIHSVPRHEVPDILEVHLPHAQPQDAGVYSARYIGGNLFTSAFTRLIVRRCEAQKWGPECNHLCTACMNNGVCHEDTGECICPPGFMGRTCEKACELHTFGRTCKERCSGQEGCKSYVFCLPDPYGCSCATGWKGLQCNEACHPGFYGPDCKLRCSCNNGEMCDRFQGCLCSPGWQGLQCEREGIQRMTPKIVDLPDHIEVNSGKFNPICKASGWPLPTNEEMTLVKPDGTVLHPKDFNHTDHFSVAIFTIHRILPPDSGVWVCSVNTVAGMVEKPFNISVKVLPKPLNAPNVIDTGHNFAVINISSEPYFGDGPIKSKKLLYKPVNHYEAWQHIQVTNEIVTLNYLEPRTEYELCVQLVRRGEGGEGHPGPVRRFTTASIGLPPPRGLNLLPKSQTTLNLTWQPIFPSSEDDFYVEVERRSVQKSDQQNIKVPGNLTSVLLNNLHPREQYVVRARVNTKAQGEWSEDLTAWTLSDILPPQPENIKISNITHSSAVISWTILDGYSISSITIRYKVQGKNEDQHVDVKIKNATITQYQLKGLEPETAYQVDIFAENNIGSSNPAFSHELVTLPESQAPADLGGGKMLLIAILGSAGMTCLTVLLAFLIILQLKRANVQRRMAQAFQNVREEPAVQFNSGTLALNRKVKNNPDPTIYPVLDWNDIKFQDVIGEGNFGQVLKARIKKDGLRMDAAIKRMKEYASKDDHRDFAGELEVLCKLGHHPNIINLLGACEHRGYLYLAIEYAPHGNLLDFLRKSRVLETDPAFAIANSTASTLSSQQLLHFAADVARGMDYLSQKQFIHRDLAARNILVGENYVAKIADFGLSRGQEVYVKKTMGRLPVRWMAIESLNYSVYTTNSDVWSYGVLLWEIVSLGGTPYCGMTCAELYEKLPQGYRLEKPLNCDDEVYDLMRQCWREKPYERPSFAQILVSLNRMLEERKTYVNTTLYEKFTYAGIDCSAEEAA
T1 sequence (P08648 42-894 limits assumed): as the sequence (P08648 42-894 limits assumed) above
T1 sequence (P08648 895-1049 limits assumed): as the sequence (P08648 895-1049 limits assumed) above
T1 sequence (P05556 21-798): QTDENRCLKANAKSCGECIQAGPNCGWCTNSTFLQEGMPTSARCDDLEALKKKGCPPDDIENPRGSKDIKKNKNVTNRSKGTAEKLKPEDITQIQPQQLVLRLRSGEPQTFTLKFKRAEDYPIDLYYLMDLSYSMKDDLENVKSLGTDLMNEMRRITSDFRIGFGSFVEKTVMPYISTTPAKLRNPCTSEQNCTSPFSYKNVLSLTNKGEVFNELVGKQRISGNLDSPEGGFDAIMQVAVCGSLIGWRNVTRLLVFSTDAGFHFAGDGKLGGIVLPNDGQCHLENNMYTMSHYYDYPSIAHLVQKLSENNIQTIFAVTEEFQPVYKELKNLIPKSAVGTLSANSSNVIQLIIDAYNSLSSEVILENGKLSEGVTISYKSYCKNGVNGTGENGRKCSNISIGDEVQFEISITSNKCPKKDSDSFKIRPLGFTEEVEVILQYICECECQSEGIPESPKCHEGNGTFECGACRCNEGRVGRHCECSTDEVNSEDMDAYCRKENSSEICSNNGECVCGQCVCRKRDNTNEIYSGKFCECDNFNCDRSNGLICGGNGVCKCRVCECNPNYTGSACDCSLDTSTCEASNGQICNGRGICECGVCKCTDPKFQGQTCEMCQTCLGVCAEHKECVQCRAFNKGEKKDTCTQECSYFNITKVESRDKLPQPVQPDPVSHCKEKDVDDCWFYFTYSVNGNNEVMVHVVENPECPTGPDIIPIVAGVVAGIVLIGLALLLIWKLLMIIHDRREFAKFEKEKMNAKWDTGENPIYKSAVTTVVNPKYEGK

## LRRFSTAPFAFIDINDVINF [AXT107]
STAT3
  STAT3 phosphorylation: also increased
Akt
  Akt phosphorylation: also increased
[1]
  Self-assembly in media: self-assemble into peptide complexes when added to media
Tie2
  Tie2 phosphorylation by fraction: phosphorylation was observed only in the insoluble fractions of peptide-treated samples
α5β1 integrin
  α5-β1 interaction by fraction after α5 immunoprecipitation: interactions with β1 were only found in the soluble fractions
Tie2 / α5 integrin
  α5 integrin complexed with Tie2: α5 integrin was observed in the peptide-treated, insoluble fraction following immunoprecipitation of Tie2
Integrin αvβ3
  Binding to integrin αvβ3: binds tightly
